Laboratory results: the MegaScale stability set (Tsuboyama et al. 2023)

B1: EEHEE_rd4_0647 (parent)
chain: MQVTWGNVTVTFSNPEEAKKYAEKVARKLGGQVELHNGQFRIK

Variants of: B1
Assay: folding stability dG (cDNA display proteolysis); higher = more stable
Details: PBS, room temperature

Compared with MQVTWGNVTVTFGNPEEAKKYAEKVARKLGGQVELHNGQFRIK [S13G], MQVTWGNVTVTFHNPEEAKKYAEKVARKLGGQVELHNGQFRIK [S13H] is higher in “folding stability dG” value: 2.5 kcal/mol for the first, 2.62 kcal/mol for the second.

Going from MQVTWGNVTVTFINPEEAKKYAEKVARKLGGQVELHNGQFRIK [S13I] to MQVTWGNVTVTFKNPEEAKKYAEKVARKLGGQVELHNGQFRIK [S13K], the “folding stability dG” value rises from 2.52 kcal/mol to 2.86 kcal/mol.

First: MQVTWGNVTVTFLNPEEAKKYAEKVARKLGGQVELHNGQFRIK [S13L]
Second: MQVTWGNVTVTFMNPEEAKKYAEKVARKLGGQVELHNGQFRIK [S13M]
The “folding stability dG” value of the first is lower: 2.57 kcal/mol for the first, 2.6 kcal/mol for the second.

First: MQVTWGNVTVTFNNPEEAKKYAEKVARKLGGQVELHNGQFRIK [S13N]
Second: MQVTWGNVTVTFPNPEEAKKYAEKVARKLGGQVELHNGQFRIK [S13P]
The “folding stability dG” value of the first is higher: 2.79 kcal/mol for the first, 2.58 kcal/mol for the second.

Compared with MQVTWGNVTVTFQNPEEAKKYAEKVARKLGGQVELHNGQFRIK [S13Q], MQVTWGNVTVTFRNPEEAKKYAEKVARKLGGQVELHNGQFRIK [S13R] is higher in “folding stability dG” value: 2.71 kcal/mol for the first, 2.81 kcal/mol for the second.

Compared with MQVTWGNVTVTFTNPEEAKKYAEKVARKLGGQVELHNGQFRIK [S13T], MQVTWGNVTVTFVNPEEAKKYAEKVARKLGGQVELHNGQFRIK [S13V] is lower in “folding stability dG” value: 2.83 kcal/mol for the first, 2.51 kcal/mol for the second.

Going from MQVTWGNVTVTFWNPEEAKKYAEKVARKLGGQVELHNGQFRIK [S13W] to MQVTWGNVTVTFYNPEEAKKYAEKVARKLGGQVELHNGQFRIK [S13Y], the “folding stability dG” value rises from 2.34 kcal/mol to 2.38 kcal/mol.

Going from MQVTWGNVTVTFSAPEEAKKYAEKVARKLGGQVELHNGQFRIK [N14A] to MQVTWGNVTVTFSDPEEAKKYAEKVARKLGGQVELHNGQFRIK [N14D], the “folding stability dG” value rises from 2.21 kcal/mol to 2.79 kcal/mol.

Compared with MQVTWGNVTVTFSEPEEAKKYAEKVARKLGGQVELHNGQFRIK [N14E], MQVTWGNVTVTFSFPEEAKKYAEKVARKLGGQVELHNGQFRIK [N14F] is lower in “folding stability dG” value: 2.2 kcal/mol for the first, 1.98 kcal/mol for the second.

Compared with MQVTWGNVTVTFSGPEEAKKYAEKVARKLGGQVELHNGQFRIK [N14G], MQVTWGNVTVTFSHPEEAKKYAEKVARKLGGQVELHNGQFRIK [N14H] is higher in “folding stability dG” value: 2.12 kcal/mol for the first, 2.38 kcal/mol for the second.

First: MQVTWGNVTVTFSIPEEAKKYAEKVARKLGGQVELHNGQFRIK [N14I]
Second: MQVTWGNVTVTFSKPEEAKKYAEKVARKLGGQVELHNGQFRIK [N14K]
The “folding stability dG” value of the first is lower: 2.08 kcal/mol for the first, 2.42 kcal/mol for the second.

Compared with MQVTWGNVTVTFSLPEEAKKYAEKVARKLGGQVELHNGQFRIK [N14L], MQVTWGNVTVTFSMPEEAKKYAEKVARKLGGQVELHNGQFRIK [N14M] is lower in “folding stability dG” value: 2.23 kcal/mol for the first, 1.99 kcal/mol for the second.

Going from MQVTWGNVTVTFSPPEEAKKYAEKVARKLGGQVELHNGQFRIK [N14P] to MQVTWGNVTVTFSQPEEAKKYAEKVARKLGGQVELHNGQFRIK [N14Q], the “folding stability dG” value rises from 0.65 kcal/mol to 2.2 kcal/mol.

First: MQVTWGNVTVTFSRPEEAKKYAEKVARKLGGQVELHNGQFRIK [N14R]
Second: MQVTWGNVTVTFSSPEEAKKYAEKVARKLGGQVELHNGQFRIK [N14S]
The “folding stability dG” value of the first is lower: 2.47 kcal/mol for the first, 2.86 kcal/mol for the second.

Going from MQVTWGNVTVTFSTPEEAKKYAEKVARKLGGQVELHNGQFRIK [N14T] to MQVTWGNVTVTFSVPEEAKKYAEKVARKLGGQVELHNGQFRIK [N14V], the “folding stability dG” value falls from 2.89 kcal/mol to 2.05 kcal/mol.

First: MQVTWGNVTVTFSWPEEAKKYAEKVARKLGGQVELHNGQFRIK [N14W]
Second: MQVTWGNVTVTFSYPEEAKKYAEKVARKLGGQVELHNGQFRIK [N14Y]
The “folding stability dG” value of the first is lower: 1.76 kcal/mol for the first, 1.91 kcal/mol for the second.

First: MQVTWGNVTVTFSNAEEAKKYAEKVARKLGGQVELHNGQFRIK [P15A]
Second: MQVTWGNVTVTFSNCEEAKKYAEKVARKLGGQVELHNGQFRIK [P15C]
The “folding stability dG” value of the first is lower: 2.89 kcal/mol for the first, 3.26 kcal/mol for the second.

First: MQVTWGNVTVTFSNDEEAKKYAEKVARKLGGQVELHNGQFRIK [P15D]
Second: MQVTWGNVTVTFSNEEEAKKYAEKVARKLGGQVELHNGQFRIK [P15E]
The “folding stability dG” value of the first is lower: 1.92 kcal/mol for the first, 2.54 kcal/mol for the second.

Compared with MQVTWGNVTVTFSNFEEAKKYAEKVARKLGGQVELHNGQFRIK [P15F], MQVTWGNVTVTFSNGEEAKKYAEKVARKLGGQVELHNGQFRIK [P15G] is lower in “folding stability dG” value: 3.41 kcal/mol for the first, 2.46 kcal/mol for the second.

Compared with MQVTWGNVTVTFSNHEEAKKYAEKVARKLGGQVELHNGQFRIK [P15H], MQVTWGNVTVTFSNIEEAKKYAEKVARKLGGQVELHNGQFRIK [P15I] is higher in “folding stability dG” value: 2.88 kcal/mol for the first, 2.99 kcal/mol for the second.

First: MQVTWGNVTVTFSNKEEAKKYAEKVARKLGGQVELHNGQFRIK [P15K]
Second: MQVTWGNVTVTFSNLEEAKKYAEKVARKLGGQVELHNGQFRIK [P15L]
The “folding stability dG” value of the first is higher: 2.83 kcal/mol for the first, 2.77 kcal/mol for the second.

Going from MQVTWGNVTVTFSNMEEAKKYAEKVARKLGGQVELHNGQFRIK [P15M] to MQVTWGNVTVTFSNNEEAKKYAEKVARKLGGQVELHNGQFRIK [P15N], the “folding stability dG” value falls from 3.03 kcal/mol to 2.29 kcal/mol.

First: MQVTWGNVTVTFSNQEEAKKYAEKVARKLGGQVELHNGQFRIK [P15Q]
Second: MQVTWGNVTVTFSNREEAKKYAEKVARKLGGQVELHNGQFRIK [P15R]
The “folding stability dG” value of the first is lower: 2.7 kcal/mol for the first, 2.78 kcal/mol for the second.

Going from MQVTWGNVTVTFSNSEEAKKYAEKVARKLGGQVELHNGQFRIK [P15S] to MQVTWGNVTVTFSNTEEAKKYAEKVARKLGGQVELHNGQFRIK [P15T], the “folding stability dG” value rises from 2.79 kcal/mol to 2.83 kcal/mol.

Going from MQVTWGNVTVTFSNVEEAKKYAEKVARKLGGQVELHNGQFRIK [P15V] to MQVTWGNVTVTFSNWEEAKKYAEKVARKLGGQVELHNGQFRIK [P15W], the “folding stability dG” value rises from 2.93 kcal/mol to 3.08 kcal/mol.

First: MQVTWGNVTVTFSNYEEAKKYAEKVARKLGGQVELHNGQFRIK [P15Y]
Second: MQVTWGNVTVTFSNPAEAKKYAEKVARKLGGQVELHNGQFRIK [E16A]
The “folding stability dG” value of the first is higher: 3.5 kcal/mol for the first, 2.78 kcal/mol for the second.

Compared with MQVTWGNVTVTFSNPCEAKKYAEKVARKLGGQVELHNGQFRIK [E16C], MQVTWGNVTVTFSNPDEAKKYAEKVARKLGGQVELHNGQFRIK [E16D] is lower in “folding stability dG” value: 3.18 kcal/mol for the first, 2.79 kcal/mol for the second.

First: MQVTWGNVTVTFSNPFEAKKYAEKVARKLGGQVELHNGQFRIK [E16F]
Second: MQVTWGNVTVTFSNPGEAKKYAEKVARKLGGQVELHNGQFRIK [E16G]
The “folding stability dG” value of the first is higher: 2.71 kcal/mol for the first, 2.54 kcal/mol for the second.

Compared with MQVTWGNVTVTFSNPHEAKKYAEKVARKLGGQVELHNGQFRIK [E16H], MQVTWGNVTVTFSNPIEAKKYAEKVARKLGGQVELHNGQFRIK [E16I] is higher in “folding stability dG” value: 2.7 kcal/mol for the first, 2.81 kcal/mol for the second.

With MQVTWGNVTVTFSNPKEAKKYAEKVARKLGGQVELHNGQFRIK [E16K] the “folding stability dG” value was 2.52 kcal/mol.
